In assay [1] the target is extracellular domain of IL-13-RA2 human recombinant receptor protein (human) (UniProt Q14627). Put plainly: ELISA.
Assay [2] deals with DT390-IL-13 single-chain fusion cytotoxin (monomer) (Corynebacterium diphtheriae | not stated). Briefly: SEC-MALS; SEC-MALS-DLS, Superose 6 Increase 10/300 GL, 4 °C, PBS pH 7.4. (Size exclusion chromatography separates by hydrodynamic size, large species first.)

As usually defined, the EC50 is the concentration giving half of the maximal effect. Broadly, the Kd is a measure of binding affinity in units of concentration. What is called stoichiometry N is a count of units in the complex or per binding partner.

Chain of UniProt Q14627 (Q14627 27-343): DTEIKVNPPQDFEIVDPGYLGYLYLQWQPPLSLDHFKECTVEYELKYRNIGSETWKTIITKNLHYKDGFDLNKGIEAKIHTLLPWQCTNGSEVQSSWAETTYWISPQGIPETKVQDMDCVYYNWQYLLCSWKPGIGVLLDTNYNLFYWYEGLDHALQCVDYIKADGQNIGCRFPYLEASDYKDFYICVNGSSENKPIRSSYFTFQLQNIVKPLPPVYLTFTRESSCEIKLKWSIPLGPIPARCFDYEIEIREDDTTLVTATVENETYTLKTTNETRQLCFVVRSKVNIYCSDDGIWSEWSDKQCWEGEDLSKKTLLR

As for “DT390-IL-13 single-chain fusion cytotoxin, oligomers (complex)”, in assay [1], the EC50 is 6.8 nM. Regarding “DT390-IL-13 single-chain fusion cytotoxin, dimer (complex)”, the concentration giving a half-maximal response (EC50) in assay [1] was found to be 6.4 nM. In the case of “DT390-IL-13 single-chain fusion cytotoxin (monomer)”, in assay [1], the EC50 is 1.9 nM and the Kd was found to be 0.0674 nM. The same substance showed a stoichiometry N in assay [2] of 2.

Source of the values: publication PMC9406121.
